According to US20060084085A1, “Methods and compositions for modulating Bax-mediated apoptosis” (priority 2004, published 2006):

Columns and labels:
CBP = biological target: T1, CBP (Homo sapiens, UniProt Q92793); experiment: In vitro acetylation assay of Ku70 peptides with CBP HAT domain and 3H-acetyl-CoA; assay type: biochemical; conditions: autoradiography
T1 construct: 100 ng of recombinant HAT domains of p300, PCAF, or CBP
From the text: (§1) FIG. 2C is a series of photographs showing acetylation peptides 16 and 29 as resolved by SDS-PAGE (PCAF reaction, left panel; CBP reaction, right panel). The acetylated domain of p53 (aa 315-325) served as a positive control for acetylation.
(§2) FIG. 2D is a photograph showing acetylation results of a series of scanning synthetic peptides of peptide 29. These scanning synthetic peptides were synthesized, with three out of the four lysines (K) substituted for arginine (R), a residue that cannot be acetylated. Peptides were incubated in acetylation reactions with PCAF or CBP and resolved by SDS-PAGE as above.
(§3) Due to the strong interaction between Ku70 and CBP and the efficient acetylation of Ku70 in vitro, we sought to define the regions of Ku70 that are targeted for acetylation. A library of 31 peptides was synthesized to cover the entire Ku70 sequence (FIG. 2B). Each of these peptides was incubated in an acetylation reaction as above, with either the HAT domain of PCAF or CBP. Again, a p53 peptide served as a positive control. […] Peptide 29 ([…]541-562), which contains four lysines (K542, K544, K553, and K556), is located within the C-terminal flexible linker region that we had previously identified as a potential target for acetylation (see FIG. 1 B).
(§4) To determine which lysines in peptide 29 were being acetylated in the reaction, a series of substitutions were made in which three out of the four lysines were replaced with arginine, a residue that cannot be acetylated. Each peptide was then incubated with either PCAF or CBP and analyzed by autoradiography as above.
(§5) Protein acetyltransferase assays were performed in 30 μl of reaction buffer containing 50 mM HEPES (pH 8.0), 10% glycerol, 1 mM DTT, 1 mM PMSF, 10 mM Na-butyrate, 1 μL (3H]-acetyl-CoA, 1 μg recombinant Ku70/80 complex or Ku70 peptide, and 100 ng of recombinant HAT domains of p300, PCAF, or CBP. Reactions were incubated at 30° C. for 1 hr and separated by SDS-PAGE (10%), stained with Coomassie blue, treated with EN^3HANCE autoradiography enhancer (NEN), dried, and exposed to film for 3-7 days. p53 peptides used as positive controls were p53315-3235 and p53377-389.

PCAF = biological target: T2, PCAF (Homo sapiens, UniProt Q92831); experiment: In vitro acetylation assay of Ku70 peptides with PCAF HAT domain and 3H-acetyl-CoA; assay type: biochemical; design: key to Relative Intensity of Acetylation: +: Band intensity was measured using NIH ImageJ software and normalized to the intensity of peptide 3.; ++: Band intensity was measured using NIH ImageJ software and normalized to the intensity of peptide 3.; +++: Band intensity was measured using NIH ImageJ software and normalized to the intensity of peptide 3.; +++++: Band intensity was measured using NIH ImageJ software and normalized to the intensity of peptide 3; conditions: for acetylation of peptide by PCAF in vitro: HAT domain of PCAF, 3H-acetyl-CoA, autoradiography; for Relative Intensity of Acetylation: Ku70 peptides acetylated by PCAF in vitro, band intensity normalized to peptide 3
T2 construct: 100 ng of recombinant HAT domains of p300, PCAF, or CBP
Description: FIG. 2B is a schematic representation of the synthetic peptide library spanning the entire length of Ku70. Each peptide was incubated with PCAF and 3H-acetyl-CoA and analyzed as in FIG. 2A.
as §1, §2, §3, §4, §5

293T cells = experiment: Bax-mediated apoptosis in 293T cells transfected with YFP-Bax and Ku70 (apoptotic nuclei scored); assay type: cell-based, human; conditions: for effect on the ability of Ku70 to suppress Bax-mediated apoptosis: 293T cells cotransfected with YFP-Bax and Ku70, apoptotic nuclei scored 24 hr posttransfection
Description: 293T cells were cotransfected with YFP (Yellow Fluorescent Protein)-Bax and pcDNA-Ku70 in the presence or absence of TSA/NAM. The percentage of cells with apoptotic nuclei were scored 24 hr posttransfection.
(A) 293T cells were transfected with YFP (1 μg) or YFP-Bax (1 μg) and Ku70 (2 μg). Twleve hrs after the transfection, the medium was supplemented with resveratrol (0, 50 or 100 nM) and the percentage of YFP positive cells with apoptotic nuclei were scored 24 hrs post-transfection. Values represent the average of three experiments in which at least 200 cells were counted and error bars represent the standard error of the mean. […] (C,D) The indicated cell lines were transfected with either YFP (1 μg), YFP-Bax (1 μg) or YFP-Bax (1 μg) and Ku70 (2 μg), and percent apoptosis was determined.
Human embryonic kidney cells (293T) were transfected with a Bax-YFP expression construct and YFP-positive cells were scored 24 hr later for a fragmented nucleus, a well-characterized apoptotic phenotype (Sawada et al., Nat. Cell Biol. 5, 320-329 (2003)).
In revesterol experiments, 293T cells were transfected with 1 μg YFP or 1 μg YFP-Bax and 2 μg Ku70. 12 hours after the transfection the media was supplemented with varying amounts of resveratrol, (0, 50 or 100 nM) and the percentage of YFP positive cells with apoptotic nuclei were scored 24 hours post-transfection.

Ku70 acetylation = Ku70 acetylation level in cells (Ku70 IP, panAc-K antibody blot); assay type: cell-based, human; conditions: HeLa cells, NAM 5 mM, TSA 1 μM, normalized to DMSO treatment
Description: Briefly, HeLa cells were grown under one of the following conditions: 0.10/6 DMSO, 1 μM TSA, 5 mM nicotinamide (NAM), or TSA and NAM. Ku70 was immunoprecipitated from whole-cell extracts and probed for lysine acetylation using a panAc-Lys Ab.
To determine which class of deacetylase targets Ku70 in vivo, cells were treated with either TSA or NAM and the acetylation level of Ku70 was detected using the panAc-K antibody.
For immunoprecipitation (IP) of Ku70, 1 mg of protein was precleared by incubation with protein A/G Sepharose beads (Santa Cruz). The supernatant was incubated with agarose-conjugated goat polyclonal anti-Ku70 antibody (Santa Cruz), followed by three washes in 1% triton in PBS. The immunocomplex was separated by SDS-PAGE and proteins were detected with a rabbit polyclonal anti-pan-acetyl-lysine (panAc-K) antibody raised against acetylated rabbit's serum.

T2 sequence (Q92831 503-651 limits assumed): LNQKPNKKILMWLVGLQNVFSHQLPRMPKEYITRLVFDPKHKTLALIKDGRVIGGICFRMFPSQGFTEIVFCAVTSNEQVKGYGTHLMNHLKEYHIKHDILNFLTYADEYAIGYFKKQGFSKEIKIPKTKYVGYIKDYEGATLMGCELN
T1 sequence (Q92793 1323-1700 limits assumed): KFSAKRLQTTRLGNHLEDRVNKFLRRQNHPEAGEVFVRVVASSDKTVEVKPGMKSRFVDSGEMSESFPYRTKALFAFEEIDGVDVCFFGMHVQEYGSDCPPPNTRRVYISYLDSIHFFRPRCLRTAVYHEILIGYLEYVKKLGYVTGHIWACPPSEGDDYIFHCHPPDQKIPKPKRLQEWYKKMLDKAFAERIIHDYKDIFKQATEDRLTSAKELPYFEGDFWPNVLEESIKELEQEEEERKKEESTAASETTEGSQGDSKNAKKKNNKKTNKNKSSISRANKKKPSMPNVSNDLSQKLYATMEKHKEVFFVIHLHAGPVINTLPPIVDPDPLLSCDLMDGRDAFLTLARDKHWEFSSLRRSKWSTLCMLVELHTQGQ

Row | Compound | acetylation of peptide by CBP in vitro (CBP) | acetylation of peptide by PCAF in vitro (PCAF) | Relative Intensity of Acetylation (PCAF) | effect on the ability of Ku70 to suppress Bax-mediated apoptosis (293T cells) | increase in total acetylation level of Ku70 (Ku70 acetylation) [fold] | suppression of Bax-mediated apoptosis (293T cells; 293T cells, YFP-Bax and Ku70, resveratrol 0, 50 or 100 nM added 12 hrs after transfection, scored 24 hrs post-transfection)
1 | NC(=O)c1cccnc1 [NAM, nicotinamide] | – | – | – | abrogated the ability of Ku70 to suppress apoptosis | 1.8 | –
2 | KRRR: peptide 29 variant retaining K542, the other three lysines replaced with arginine (TKRRHDNEGSGSRRPRVEYSEE) | acetylated to almost the same extent as the original peptide 29 | acetylated to almost the same extent as the original peptide 29 | – | – | – | –
3 | CC(/C=C/C(=O)NO)=C\[C@@H](C)C(=O)c1ccc(N(C)C)cc1 [TSA, trichostatin A] | – | – | – | apoptosis suppression was completely blocked | 2.4 | –
4 | ASKAMFESQSEDELT [Peptide 3, Ku70 peptide, amino acids 44-58] | – | acetylated by PCAF | + | – | – | –
5 | Oc1ccc(/C=C/c2cc(O)cc(O)c2)cc1 [resveratrol, 3,5,4′-Trihydroxy-trans-stilbene] | – | – | – | – | – | dose-dependent suppression of Bax-mediated apoptosis

Continued, in another order:

Row | acetylation of peptide by CBP in vitro (CBP) | acetylation of peptide by PCAF in vitro (PCAF) | Relative Intensity of Acetylation (PCAF) | Compound | effect on the ability of Ku70 to suppress Bax-mediated apoptosis (293T cells) | increase in total acetylation level of Ku70 (Ku70 acetylation) [fold] | suppression of Bax-mediated apoptosis (293T cells; 293T cells, YFP-Bax and Ku70, resveratrol 0, 50 or 100 nM added 12 hrs after transfection, scored 24 hrs post-transfection)
6 | strongly acetylated | strongly acetylated | +++ | RQIILEKEETEELKRFD [Peptide 16, Ku70 peptide, amino acids 325-341] | – | – | –
7 | – | acetylated by PCAF | ++ | VQFKMSHKRIMLFTNED [Peptide 8, Ku70 peptide, amino acids 157-173] | – | – | –
8 | – | acetylated by PCAF | +++ | LLLPSDTKRSQIY [Peptide 15, Ku70 peptide, amino acids 310-322] | – | – | –
9 | weakly acetylated | weakly acetylated | – | RRKR: peptide 29 variant retaining K553, the other three lysines replaced with arginine (TRRRHDNEGSGSKRPRVEYSEE) | – | – | –
10 | strongly acetylated | strongly acetylated | +++++ | TKRKHDNEGSGSKRPKVEYSEE [Peptide 29, Ku70 peptide, amino acids 541-562] | – | – | –
